Source: paper doi:10.1101/2022.12.27.521990

Target: Soluble, trimeric spike of SARS-CoV-2/human/China/Wuhan-Hu-1/2019 (residues 1-1204, 6 proline mutations) (SARS-CoV-2) (UniProt P0DTC2)
Test: SEC

Soluble, trimeric spike of SARS-CoV-2/human/China/Wuhan-Hu-1/2019 (residues 1-1204, 6 proline mutations) (from UniProt P0DTC2 14-1204) (domain or fragment)
stoichiometry N: 3
